{"source": "paper PMC4072699", "about": "“A Remorin Gene SiREM6, the Target Gene of SiARDP, from Foxtail Millet (Setaria italica) Promotes High Salt Tolerance in Transgenic Arabidopsis”", "key": {"SiAREB1": {"biological_target": "T1, SiAREB1 (Setaria italica, UniProt K3YTM2 1-357)", "T1 sequence": "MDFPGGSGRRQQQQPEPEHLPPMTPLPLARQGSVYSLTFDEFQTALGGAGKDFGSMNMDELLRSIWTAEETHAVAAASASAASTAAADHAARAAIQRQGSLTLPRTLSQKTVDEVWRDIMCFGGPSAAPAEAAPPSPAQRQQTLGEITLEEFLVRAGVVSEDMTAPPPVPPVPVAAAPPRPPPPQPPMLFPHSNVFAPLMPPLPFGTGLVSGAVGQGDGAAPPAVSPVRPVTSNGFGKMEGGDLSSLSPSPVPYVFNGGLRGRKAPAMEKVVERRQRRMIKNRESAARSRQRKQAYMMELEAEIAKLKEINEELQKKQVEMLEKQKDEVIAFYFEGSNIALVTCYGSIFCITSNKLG", "assay": "EMSA; LightShift Chemiluminescent EMSA Kit (Thermo), manufacturer's protocol; buffer, salt, pH and temperature not stated", "settings": "protein: recombinant; chain copies: 2; label: biotin"}, "SiARDP [1]": {"biological_target": "T2, SiARDP (Setaria italica, UniProt K3Z7V1 1-332)", "T2 sequence (K3Z7V1 entry or part of it)": "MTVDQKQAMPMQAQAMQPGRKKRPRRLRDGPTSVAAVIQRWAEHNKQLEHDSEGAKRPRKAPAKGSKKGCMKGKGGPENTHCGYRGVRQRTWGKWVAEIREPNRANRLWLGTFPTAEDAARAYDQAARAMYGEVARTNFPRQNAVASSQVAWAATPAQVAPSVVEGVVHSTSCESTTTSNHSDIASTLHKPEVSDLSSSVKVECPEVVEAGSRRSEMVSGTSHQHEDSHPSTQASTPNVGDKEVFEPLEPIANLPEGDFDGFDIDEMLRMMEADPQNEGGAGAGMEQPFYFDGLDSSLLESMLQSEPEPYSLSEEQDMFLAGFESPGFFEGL", "assay": "competition; versus labeled P1; signal not obviously reduced; LightShift Chemiluminescent EMSA Kit (Thermo), manufacturer's protocol; buffer, salt, pH and temperature not stated", "settings": "protein: recombinant"}, "SiARDP [2]": {"biological_target": "T2, SiARDP", "assay": "EMSA; LightShift Chemiluminescent EMSA Kit (Thermo), manufacturer's protocol; buffer, salt, pH and temperature not stated", "settings": "protein: recombinant; label: biotin"}, "SiARDP [3]": {"biological_target": "T2, SiARDP", "assay": "competition; versus labeled P1; LightShift Chemiluminescent EMSA Kit (Thermo), manufacturer's protocol; buffer, salt, pH and temperature not stated", "settings": "protein: recombinant"}, "SiARDP [4]": {"biological_target": "T2, SiARDP", "assay": "competition; versus labeled P2; LightShift Chemiluminescent EMSA Kit (Thermo), manufacturer's protocol; buffer, salt, pH and temperature not stated", "settings": "protein: recombinant"}, "SiARDP [5]": {"biological_target": "T2, SiARDP", "assay": "competition; versus labeled P2; signal not obviously reduced; LightShift Chemiluminescent EMSA Kit (Thermo), manufacturer's protocol; buffer, salt, pH and temperature not stated", "settings": "protein: recombinant"}}}
{"binder": "probe P2 (DRE2) (dsDNA) DNA 1: ATGGGTTCCTTGCCGACTCTTCTTTTAACC DNA 2: GGTTAAAAGAAGAGTCGGCAAGGAACCCAT", "values": [{"measurement": "binding result", "setting": "SiAREB1", "result": "no binding"}]}
{"binder": "competitor 2 (mutant DRE1, ACCGAC to AAAAAC) (dsDNA) DNA 1: GCGATGGTCCTCAAAAACGACGCCGCCCGC DNA 2: GCGGGCGGCGTCGTTTTTGAGGACCATCGC", "values": [{"measurement": "binding result", "setting": "SiARDP [1]", "result": "no binding"}]}
{"binder": "probe P3 (ABRE) (dsDNA) DNA 1: GCCGCGCGGGTACGTGCGAGCCCCGCGGTC DNA 2: GACCGCGGGGCTCGCACGTACCCGCGCGGC", "values": [{"measurement": "binding result", "setting": "SiAREB1", "result": "no binding"}, {"measurement": "binding result", "setting": "SiARDP [2]", "result": "no binding"}]}
{"binder": "competitor 1 (DRE1) (dsDNA) DNA 1: GCGATGGTCCTCACCGACGACGCCGCCCGC DNA 2: GCGGGCGGCGTCGTCGGTGAGGACCATCGC", "values": [{"measurement": "binding result", "setting": "SiARDP [3]", "result": "binds"}]}
{"binder": "competitor 3 (DRE2) (dsDNA) DNA 1: ATGGGTTCCTTGCCGACTCTTCTTTTAACC DNA 2: GGTTAAAAGAAGAGTCGGCAAGGAACCCAT", "values": [{"measurement": "binding result", "setting": "SiARDP [4]", "result": "binds"}]}
{"binder": "competitor 4 (mutant DRE2, GCCGAC to GAAAAA) (dsDNA) DNA 1: ATGGGTTCCTTGAAAAATCTTCTTTTAACC DNA 2: GGTTAAAAGAAGATTTTTCAAGGAACCCAT", "values": [{"measurement": "binding result", "setting": "SiARDP [5]", "result": "no binding"}]}
{"binder": "probe P1 (DRE1) (dsDNA) DNA 1: GCGATGGTCCTCACCGACGACGCCGCCCGC DNA 2: GCGGGCGGCGTCGTCGGTGAGGACCATCGC", "values": [{"measurement": "binding result", "setting": "SiAREB1", "result": "no binding"}, {"measurement": "binding result", "setting": "SiARDP [2]", "result": "binds"}]}
